± gives the uncertainty stated by the source.
Test: self-splicing fitness, log relative to wild type (ln ratio); higher = more splicing; Tetrahymena group I intron in knt gene, E. coli kanamycin selection, DiMSum; sequences stand for … in CUCUCU…GGAGGGAAAAGUUAUCAGGCAUGCACCUGGUAGCUAGUCUUUAAACCAAUAGAUUGCAUCGGUUUAAAAGGCAAGACCGUCAAAUUGCGGGAAAGGGGUCAACAGCCGUUCAGUACCAAGUCUCAGGGGAAACUUUGAGAUGGCCUUGCAAAGGGUAUGGUAAUAAGCUGACGGACAUGGUCCUAACCACGCAGCCAAGUCCUAAGUCAACAGAUCUUCUGUUGAUAUGGAUGCAGUUCACAGACUAAAUGUCGGUCGGGGAAGAUGUAUUCUUCUCAUAAGAUAUAGUCGGACCUCUCCUUAAUGGGAGCUAGCGGAUGAAGUGAUGCAACACUGGAGCCGCUGGGAACUAAUUUGUAUGCGAAAGUAUAUUGAUUAGUUUUGGAGUACUCGUGGUCG
Outline: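 Library with all eight P1ex-region intron nucleotides randomised, intron inside the knt kanamycin-resistance gene on pET-22b(+), in E. coli BL21(DE3). Cells grew overnight at 37°C or 30°C on LB agar with or without 25 μg/mL kanamycin (plus 100 μg/mL carbenicillin, 50 μM IPTG, 0.2% rhamnose), in six replicate transformations. Pooled colonies were amplicon-sequenced on Illumina HiSeq 2500. DiMSum fitness is the error-weighted combination of wild-type-normalised replicate fold changes, kanamycin versus none.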

Sequence	self-splicing fitness (ln) (30 °C)	self-splicing fitness (ln) (37 °C)
AUAAAGCAAUAUUACGAGCU	-0.379 ± 0.06	0.246 ± 0.086
AGCGAGCAAUAUUACGGCCU	-0.967 ± 0.17	-0.258 ± 0.19
ACCAAGCAAUAUUACGGUCU	-2.13 ± 0.08	-0.69 ± 0.066
CAGUAGCAAUAUUACGAGAG	-3.95 ± 0.24	-2.76 ± 0.19
UCCCAGCAAUAUUACGCCUG	-3.13 ± 0.26	-1.8 ± 0.23
AGUUAGCAAUAUUACGAAUU	-1.62 ± 0.11	-0.649 ± 0.12
CAUCAGCAAUAUUACGUUCU	-3.82 ± 0.2	-3.32 ± 0.23
AGCAAGCAAUAUUACGUUGG	-4.16 ± 0.14	-3.18 ± 0.17
AUCUAGCAAUAUUACGUGCC	-2.47 ± 0.23	-1.08 ± 0.15
UCGGAGCAAUAUUACGCGGA	-2.32 ± 0.33	0.916 ± 0.15
UGUGAGCAAUAUUACGCACA	-2.63 ± 0.29	-2.84 ± 0.34
UGGCAGCAAUAUUACGCUAA	-0.652 ± 0.06	0.116 ± 0.069
GCUCAGCAAUAUUACGCCAG	-3.54 ± 0.26	-1.83 ± 0.3
CGUGAGCAAUAUUACGGAAA	-2.27 ± 0.3	-1.14 ± 0.27
AGGCAGCAAUAUUACGUCGA	-0.305 ± 0.043	-0.0427 ± 0.055
CUCUAGCAAUAUUACGCGAC	-3.14 ± 0.24	-2.75 ± 0.3
CAAAAGCAAUAUUACGAAUG	-1.18 ± 0.057	-0.723 ± 0.076
UGUCAGCAAUAUUACGGCAA	-0.754 ± 0.075	-0.0955 ± 0.098
UGGUAGCAAUAUUACGUCGG	-1.21 ± 0.12	-0.18 ± 0.15
CGCUAGCAAUAUUACGAGUA	-0.852 ± 0.11	-0.525 ± 0.11
AGCUAGCAAUAUUACGGCUG	-0.696 ± 0.11	-0.185 ± 0.14
ACACAGCAAUAUUACGACUC	-0.737 ± 0.063	-0.631 ± 0.072
CUUCAGCAAUAUUACGUACA	–	-2.14 ± 0.5
AAAGAGCAAUAUUACGCUAC	–	-2.81 ± 0.32

Sequence	self-splicing fitness (ln) (30 °C)	self-splicing fitness (ln) (37 °C)
CUCAAGCAAUAUUACGACGC	-1.75 ± 0.24	-2.18 ± 0.42
AGAGAGCAAUAUUACGUUGG	-3.15 ± 0.14	-2.76 ± 0.18
CACGAGCAAUAUUACGUCCG	-1.34 ± 0.092	-0.226 ± 0.096
GGCGAGCAAUAUUACGGGUA	-3.42 ± 0.26	-2.79 ± 0.2
CACCAGCAAUAUUACGGGUG	-3.87 ± 0.15	-2.26 ± 0.15
CAUCAGCAAUAUUACGUGUU	-2.31 ± 0.12	-2.79 ± 0.24
AAGUAGCAAUAUUACGGCCG	-1.34 ± 0.12	-0.293 ± 0.18
CGAAAGCAAUAUUACGGUGA	-1.52 ± 0.084	-0.808 ± 0.11
GAAUAGCAAUAUUACGCCCU	-0.167 ± 0.19	0.00214 ± 0.21
UCAUAGCAAUAUUACGAAAU	-2.86 ± 0.23	-2.58 ± 0.28
UACCAGCAAUAUUACGUUUC	-4 ± 0.28	-2.56 ± 0.22
CAUUAGCAAUAUUACGUCGA	-2.75 ± 0.14	-2.05 ± 0.12
AUACAGCAAUAUUACGACAA	-1.19 ± 0.093	-0.929 ± 0.12
ACAAAGCAAUAUUACGCGUU	-3.19 ± 0.1	-2.69 ± 0.14
CAUCAGCAAUAUUACGGGGG	-1.94 ± 0.084	-0.816 ± 0.1
CCUCAGCAAUAUUACGAGCG	-2 ± 0.094	-1.05 ± 0.088
GAGAAGCAAUAUUACGCCGU	-2.18 ± 0.21	-1.89 ± 0.21
GUCGAGCAAUAUUACGAUUA	0.373 ± 0.19	-0.944 ± 0.2
UCCCAGCAAUAUUACGCCGU	-3.11 ± 0.22	-2.27 ± 0.21
GCCCAGCAAUAUUACGAGUC	-0.477 ± 0.039	-0.126 ± 0.059
GCAUAGCAAUAUUACGUCGU	-3.44 ± 0.17	-1.06 ± 0.13
CACCAGCAAUAUUACGUGCC	-3.42 ± 0.27	-1.27 ± 0.46
AACGAGCAAUAUUACGUUGC	-4.01 ± 0.18	-3.16 ± 0.19
